Experimental data: paper PMC9482650, “Quantitative fragmentomics allow affinity mapping of interactomes” (Nature Communications, 2022)
One block for each binder: values may come before it.

Assays:
Experiment in all cases: holdup assay
Design in all cases: key: below the threshold = too weak to quantify, mostly under pKd 3.1 to 4
SYNJ2BP, P57105 = target: T1, SYNJ2BP, P57105
T1 sequence (P57105 8-110, limits assumed, looked up): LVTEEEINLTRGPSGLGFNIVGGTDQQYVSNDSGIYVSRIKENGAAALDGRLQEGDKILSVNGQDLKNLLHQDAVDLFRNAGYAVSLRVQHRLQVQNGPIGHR

APBA2_2, Q99767 = target: T2, APBA2_2, Q99767
T2 sequence (Q99767 654-744, limits assumed, looked up): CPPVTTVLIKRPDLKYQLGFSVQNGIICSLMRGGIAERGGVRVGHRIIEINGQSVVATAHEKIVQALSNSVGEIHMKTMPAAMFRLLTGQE

MAGI1_2, Q96QZ7 = target: MAGI1_2, Q96QZ7
LNX2_3, Q8N448 = target: T3, LNX2_3, Q8N448
T3 sequence (Q8N448 463-564, limits assumed, looked up): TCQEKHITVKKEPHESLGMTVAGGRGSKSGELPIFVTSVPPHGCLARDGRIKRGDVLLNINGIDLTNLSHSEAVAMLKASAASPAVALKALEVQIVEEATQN

PCLO, Q9Y6V0 = target: T4, PCLO, Q9Y6V0
T4 sequence (Q9Y6V0 4491-4600, limits assumed, looked up): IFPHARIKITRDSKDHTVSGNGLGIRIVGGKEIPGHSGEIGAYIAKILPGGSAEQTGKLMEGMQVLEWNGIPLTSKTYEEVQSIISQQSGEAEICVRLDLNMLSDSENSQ

SHANK1, Q9Y566 = target: T5, SHANK1, Q9Y566
T5 sequence (Q9Y566 658-767, limits assumed, looked up): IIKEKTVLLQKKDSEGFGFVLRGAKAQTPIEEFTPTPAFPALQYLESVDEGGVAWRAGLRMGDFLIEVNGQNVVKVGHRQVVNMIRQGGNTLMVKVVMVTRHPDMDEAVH

NHERF4_2, Q86UT5 = target: NHERF4_2, Q86UT5
Inadl_9, Q8NI35 = target: Inadl_9, Q8NI35
GORASP2, Q9H8Y8 = target: GORASP2, Q9H8Y8
HTRA4, P83105 = target: T6, HTRA4, P83105
T6 sequence (P83105 378-476, limits assumed, looked up): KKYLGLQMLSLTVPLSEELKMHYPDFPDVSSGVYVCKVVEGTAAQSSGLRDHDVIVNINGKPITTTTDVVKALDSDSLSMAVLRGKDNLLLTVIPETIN

DLG2_3, Q15700 = target: DLG2_3, Q15700
IL16_3, Q14005 = target: IL16_3, Q14005
LRRC7, Q96NW7 = target: T7, LRRC7, Q96NW7
T7 sequence (Q96NW7 1440-1537, limits assumed, looked up): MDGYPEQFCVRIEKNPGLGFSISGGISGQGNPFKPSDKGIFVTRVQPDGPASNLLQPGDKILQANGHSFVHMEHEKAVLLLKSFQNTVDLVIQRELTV

MAGI3_2, Q5TCQ9 = target: MAGI3_2, Q5TCQ9
FRMPD4, Q14CM0 = target: FRMPD4, Q14CM0
IL16_4, Q14005 = target: IL16_4, Q14005
Inadl_6, Q8NI35 = target: Inadl_6, Q8NI35
MAGI1_1, Q96QZ7 = target: MAGI1_1, Q96QZ7
GOPC, Q9HD26 = target: GOPC, Q9HD26
FRMPD2_3, Q68DX3 = target: FRMPD2_3, Q68DX3
Inadl_4, Q8NI35 = target: Inadl_4, Q8NI35
MAGI2_4, Q86UL8 = target: MAGI2_4, Q86UL8
NOS1, P29475 = target: NOS1, P29475
ARHGAP21, Q5T5U3 = target: T8, ARHGAP21, Q5T5U3
T8 sequence (Q5T5U3 45-169, limits assumed, looked up): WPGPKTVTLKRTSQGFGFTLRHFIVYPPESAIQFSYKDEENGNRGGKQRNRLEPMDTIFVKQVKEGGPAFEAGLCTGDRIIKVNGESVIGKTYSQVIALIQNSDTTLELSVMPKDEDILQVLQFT

LNX1_3, Q8TBB1 = target: LNX1_3, Q8TBB1
PARD3B_1, Q8TEW8 = target: T9, PARD3B_1, Q8TEW8
T9 sequence (Q8TEW8 196-299, limits assumed, looked up): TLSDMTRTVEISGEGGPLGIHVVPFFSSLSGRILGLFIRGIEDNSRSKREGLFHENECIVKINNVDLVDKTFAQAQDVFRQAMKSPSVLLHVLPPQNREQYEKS

DLG3_3, Q92796 = target: T10, DLG3_3, Q92796
T10 sequence (Q92796 374-475, limits assumed, looked up): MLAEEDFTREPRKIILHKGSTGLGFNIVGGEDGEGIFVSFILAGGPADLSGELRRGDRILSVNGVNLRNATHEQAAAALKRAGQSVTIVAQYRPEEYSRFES

[1] = plain residues with an end cap or a label only (N-terminal biotin on a linker: ahx)
[2] = plain residues with an end cap or a label only (N-terminal biotin on a linker: ttds)

MAGI1_2, Q96QZ7, sequence (Q96QZ7 456-580): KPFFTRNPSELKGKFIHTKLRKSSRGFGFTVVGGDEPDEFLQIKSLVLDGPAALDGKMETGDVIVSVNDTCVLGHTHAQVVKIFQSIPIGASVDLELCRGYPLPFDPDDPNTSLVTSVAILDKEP
FRMPD4, Q14CM0, sequence (Q14CM0 67-160): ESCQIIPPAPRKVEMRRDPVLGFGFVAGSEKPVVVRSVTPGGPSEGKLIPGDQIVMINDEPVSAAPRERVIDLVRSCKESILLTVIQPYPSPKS
IL16_4, Q14005, sequence (Q14005 1229-1329): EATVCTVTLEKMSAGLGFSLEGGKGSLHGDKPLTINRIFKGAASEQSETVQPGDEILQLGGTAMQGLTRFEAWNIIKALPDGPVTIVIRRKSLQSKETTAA
NOS1, P29475, sequence (P29475 9-101): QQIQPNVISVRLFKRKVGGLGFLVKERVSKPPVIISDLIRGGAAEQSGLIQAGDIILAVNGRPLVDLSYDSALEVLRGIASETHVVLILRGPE
LNX1_3, Q8TBB1, sequence (Q8TBB1 500-596): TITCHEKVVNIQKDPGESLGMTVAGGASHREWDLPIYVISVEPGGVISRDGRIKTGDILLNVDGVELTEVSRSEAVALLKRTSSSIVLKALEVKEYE
IL16_3, Q14005, sequence (Q14005 1107-1207): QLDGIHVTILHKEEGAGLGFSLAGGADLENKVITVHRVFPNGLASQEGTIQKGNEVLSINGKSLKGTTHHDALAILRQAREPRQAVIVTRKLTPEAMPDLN
MAGI1_1, Q96QZ7, sequence (Q96QZ7 1-106): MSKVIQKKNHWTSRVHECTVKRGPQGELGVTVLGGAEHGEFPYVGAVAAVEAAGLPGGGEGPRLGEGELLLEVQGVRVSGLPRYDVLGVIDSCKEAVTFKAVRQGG
Inadl_9, Q8NI35, sequence (Q8NI35 1530-1615): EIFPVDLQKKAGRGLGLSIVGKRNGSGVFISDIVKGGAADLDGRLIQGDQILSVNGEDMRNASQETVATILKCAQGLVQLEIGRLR
MAGI3_2, Q5TCQ9, sequence (Q5TCQ9 398-503): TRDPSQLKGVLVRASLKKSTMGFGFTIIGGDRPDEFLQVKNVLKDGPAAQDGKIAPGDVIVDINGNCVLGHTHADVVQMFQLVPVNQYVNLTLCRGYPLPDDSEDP
MAGI2_4, Q86UL8, sequence (Q86UL8 772-865): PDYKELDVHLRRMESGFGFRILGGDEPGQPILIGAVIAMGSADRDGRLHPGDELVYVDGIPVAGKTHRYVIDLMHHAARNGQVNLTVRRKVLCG
Inadl_4, Q8NI35, sequence (Q8NI35 547-651): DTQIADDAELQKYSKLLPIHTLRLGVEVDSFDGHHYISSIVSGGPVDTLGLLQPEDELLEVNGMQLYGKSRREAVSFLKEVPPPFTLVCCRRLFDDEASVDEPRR
NHERF4_2, Q86UT5, sequence (Q86UT5 220-308): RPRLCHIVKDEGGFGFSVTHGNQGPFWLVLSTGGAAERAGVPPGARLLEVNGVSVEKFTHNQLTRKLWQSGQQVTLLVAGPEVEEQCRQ
Inadl_6, Q8NI35, sequence (Q8NI35 1058-1167): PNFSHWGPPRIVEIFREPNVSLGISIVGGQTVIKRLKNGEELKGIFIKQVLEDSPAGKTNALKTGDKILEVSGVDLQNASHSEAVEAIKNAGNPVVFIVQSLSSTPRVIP
FRMPD2_3, Q68DX3, sequence (Q68DX3 1073-1166): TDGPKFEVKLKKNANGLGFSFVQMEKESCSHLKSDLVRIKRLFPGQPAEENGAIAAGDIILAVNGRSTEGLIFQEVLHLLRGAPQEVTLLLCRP

pKd (SYNJ2BP, P57105; [1]): below the threshold
pKd (APBA2_2, Q99767; [1]): below the threshold
pKd (MAGI1_2, Q96QZ7; [1]): below the threshold
pKd (LNX2_3, Q8N448; [1]): below the threshold
pKd (PCLO, Q9Y6V0; [1]): below the threshold
pKd (SHANK1, Q9Y566; [1]): 4.21
pKd (NHERF4_2, Q86UT5; [1]): below the threshold
pKd (Inadl_9, Q8NI35; [1]): below the threshold
pKd (GORASP2, Q9H8Y8; [1]): below the threshold
pKd (HTRA4, P83105; [1]): below the threshold
pKd (DLG2_3, Q15700; [1]): below the threshold
pKd (IL16_3, Q14005; [1]): below the threshold
pKd (LRRC7, Q96NW7; [1]): below the threshold
pKd (MAGI3_2, Q5TCQ9; [1]): below the threshold
pKd (FRMPD4, Q14CM0; [1]): below the threshold
pKd (IL16_4, Q14005; [1]): below the threshold
pKd (Inadl_6, Q8NI35; [1]): below the threshold
pKd (MAGI1_1, Q96QZ7; [1]): below the threshold
pKd (GOPC, Q9HD26; [1]): below the threshold
pKd (FRMPD2_3, Q68DX3; [1]): below the threshold
pKd (Inadl_4, Q8NI35; [1]): below the threshold
pKd (MAGI2_4, Q86UL8; [1]): 3.69
pKd (NOS1, P29475; [1]): below the threshold
pKd (ARHGAP21, Q5T5U3; [1]): 3.5
pKd (LNX1_3, Q8TBB1; [1]): below the threshold
pKd (PARD3B_1, Q8TEW8; [1]): below the threshold
pKd (DLG3_3, Q92796; [1]): below the threshold
B1: SHKBP1, Q8TBC3 (peptide)
chain: PKMKLNETSF

pKd (SYNJ2BP, P57105; [1]): below the threshold
pKd (APBA2_2, Q99767; [1]): below the threshold
pKd (MAGI1_2, Q96QZ7; [1]): 3.99
pKd (LNX2_3, Q8N448; [1]): below the threshold
pKd (PCLO, Q9Y6V0; [1]): below the threshold
pKd (SHANK1, Q9Y566; [1]): 3.66
pKd (NHERF4_2, Q86UT5; [1]): below the threshold
pKd (Inadl_9, Q8NI35; [1]): below the threshold
pKd (GORASP2, Q9H8Y8; [1]): 4.33
pKd (HTRA4, P83105; [1]): 4.2
pKd (DLG2_3, Q15700; [1]): 4.06
pKd (IL16_3, Q14005; [1]): below the threshold
pKd (LRRC7, Q96NW7; [1]): below the threshold
pKd (MAGI3_2, Q5TCQ9; [1]): 4.27
pKd (FRMPD4, Q14CM0; [1]): below the threshold
pKd (IL16_4, Q14005; [1]): below the threshold
pKd (Inadl_6, Q8NI35; [1]): below the threshold
pKd (MAGI1_1, Q96QZ7; [1]): below the threshold
pKd (GOPC, Q9HD26; [1]): 4.1
pKd (FRMPD2_3, Q68DX3; [1]): below the threshold
pKd (Inadl_4, Q8NI35; [1]): below the threshold
pKd (MAGI2_4, Q86UL8; [1]): 4.56
pKd (NOS1, P29475; [1]): below the threshold
pKd (ARHGAP21, Q5T5U3; [1]): below the threshold
pKd (LNX1_3, Q8TBB1; [1]): below the threshold
pKd (PARD3B_1, Q8TEW8; [1]): below the threshold
pKd (DLG3_3, Q92796; [1]): 3.67
B2: PDZRN3, Q9UPQ7 (peptide)
chain: YNSFLSVTTV

pKd (SYNJ2BP, P57105; [2]): 5.08
pKd (APBA2_2, Q99767; [2]): below the threshold
pKd (MAGI1_2, Q96QZ7; [2]): 3.9
pKd (LNX2_3, Q8N448; [2]): below the threshold
pKd (PCLO, Q9Y6V0; [2]): below the threshold
pKd (SHANK1, Q9Y566; [2]): below the threshold
pKd (NHERF4_2, Q86UT5; [2]): below the threshold
pKd (Inadl_9, Q8NI35; [2]): below the threshold
pKd (GORASP2, Q9H8Y8; [2]): 3.66
pKd (HTRA4, P83105; [2]): below the threshold
pKd (DLG2_3, Q15700; [2]): 4.32
pKd (IL16_3, Q14005; [2]): below the threshold
pKd (LRRC7, Q96NW7; [2]): below the threshold
pKd (MAGI3_2, Q5TCQ9; [2]): 4.93
pKd (FRMPD4, Q14CM0; [2]): 3.52
pKd (IL16_4, Q14005; [2]): below the threshold
pKd (Inadl_6, Q8NI35; [2]): below the threshold
pKd (MAGI1_1, Q96QZ7; [2]): below the threshold
pKd (GOPC, Q9HD26; [2]): below the threshold
pKd (FRMPD2_3, Q68DX3; [2]): 3.46
pKd (Inadl_4, Q8NI35; [2]): below the threshold
pKd (MAGI2_4, Q86UL8; [2]): below the threshold
pKd (NOS1, P29475; [2]): 4.41
pKd (ARHGAP21, Q5T5U3; [2]): below the threshold
pKd (LNX1_3, Q8TBB1; [2]): below the threshold
pKd (PARD3B_1, Q8TEW8; [2]): 3.52
pKd (DLG3_3, Q92796; [2]): 4.12
B3: FZD7, O75084 (peptide)
chain: SHSSKGETAV
